Experimental data as given in patent US20160340704A1, “METHOD OF MAKING A BENZYLISOQUINOLINE ALKALOID (BIA) METABOLITE, ENZYMES THEREFORE” (VALORBEC SOCIÉTÉ EN COMMANDITE, priority 2014, published 2016).

Key:
[1] = Microsomal cytochrome P450 enzyme assay of PsCFS and PsSPSΔN incubated with (S)-scoulerine; type: biochemical, Papaver somniferum; details: microsomes with PsCPR; 125 μM (S)-scoulerine, 500 μM NADPH
Description: The pESC-CPR vector encoding opium poppy cytochrome P450 reductase (PsCPR) fused to a c-Myc tag was used for the heterologous expression of plant proteins in S. cerevisiae^25. The amplicon was inserted into NotI and SpeI restriction sites of pESC-CPR in-frame with a FLAG-tag sequence yielding pESC-CPR/CFS. […]
Analysis of enzyme assays was performed using an Agilent™ 1200 liquid chromatography system equipped with a 6410 triple-quadrupole mass spectrometer (Agilent Technologies; Santa Clara, Calif.). […] Scoulerine, cheilanthifoline, and stylopine were detected in multiple reaction monitoring (MRM) mode using a collision energy of 25 eV and monitored transitions of m/z 328→178, 326→178 and 324→176, respectively.
Constructs for the heterologous expression of PsCFS and PsSPS in S. cerevisiae were assembled in a vector harbouring PsCPR (Table 1 above). […] No conversion of scoulerine was detected in the negative control. […]

[2] = tested on: scoulerine; experiment: CYP719s in GC1316 (integrated PsCPR and PsCFS) supplemented with scoulerine; type: cell-based, Saccharomyces cerevisiae; details: CYP719 expressed with PsCFS and PsCPR
Text: Plasmids harboring CYP719s were transformed into either GC1333 containing an integrated PsCPR (FIG. 10A) or GC1316 containing an integrated PsCPR and an integrated PsCFS (FIG. 10B). Strain GC1333, harboring PsCPR integrated into the chromosome, was transformed with pBOT plasmids, with GFP removed, harboring individual CYP719s (CYP719 EX41-105). (See Tables 7-8 below presenting the nature and activity of these CYP719s).
Plasmids harboring individual CYP719s were transformed into strain GC1316, which harbored PsCPR and PsCFS integrated into the genome. Strains were supplemented with scoulerine and after 16 hours total BIAs were extracted and the molar ratio was compared (FIG. 10B). The four possible BIAs that could be extracted were scoulerine, the single Ring A product nandinine, the single Ring B product cheilanthifoline, and the double Ring A, Ring B product stylopine.

[3] = tested on: cheilanthifoline; experiment: CYP719 Ring A closure of cheilanthifoline to stylopine in GC1333; type: cell-based, Saccharomyces cerevisiae
Description: (§1) FIG. 11A-B: showing conversion of (S)-cheilanthifoline (FIG. 11A) or (S)-nandinine (FIG. 11B) to (S)-stylopine by purchased CYP719s. Plasmids harboring CYP719s were transformed into GC1333 containing an integrated PsCPR. Strains were incubated with the appropriate BIA overnight, and then total BIAs were extracted and total molar ratios were compared. PsSPSΔN was used as a control.
(§2) The 10 CYP719s with 95% activity on Ring A of scoulerine and the 10 CYP719s with activity on Ring B of scoulerine were tested for activity on cheilanthifoline and nandinine, respectively, in order to generate a branched stylopine synthesis pathway. […] CYP719s PsCFS and EX101, capable of converting >98% of scoulerine to cheilanthifoline and nandinine, respectively, were incubated with scoulerine. After 16 h, cells were pelleted and the supernatant fraction was collected. The supernatant was then applied to fresh yeast strains in order to supplement them with either TE containing nandinine or cheilanthifoline as necessary.

[4] = tested on: nandinine; experiment: CYP719 Ring B closure of nandinine to stylopine in GC1333; type: cell-based, Saccharomyces cerevisiae
Description: as §1, §2

B1: EX94: N-truncated Papaver somniferum stylopine synthase (CYP719A20) with lettuce germacrene A oxidase N-terminal domain, SEQ ID NO: 373 (protein, listed as Papaver somniferum)
chain: MELSITTSIALATIVFFLYKLATRPKSTKKQLPEASRLPIIGHKRKKSSTMVWPTGPKTLPIIGNMHVLGGTALQVVLHNLAKIHGNVMTIWIGSWRPVIVVSDIDRAWEVLVNKSSDYSARDMPEITKIISADWKTISTSDSGPGWSNLRKGLQNVALSPHNLAAQSQFQEKDITKMIQSLKKEAASNNGIVKPIDHLKKATLRLISRLIFGQDFDDDKYVDDMHHAIEELIRVSGYAQLAEAFYYAKYLPSHKKAVRDVEEANQRVKKLVRPFLSLNPPTNTYLHFLNSQKYDEEVIIFAIFEAYLLGVDSTSLTTAWALAFLIREPVVQDKLYQELKNLTAKNDCEIVKVEDLNKLQYLQAVLKETMRMKPIAPLAIPHKACRDTSLKGNKIDQGTQVMVNIYALHHNEKVWKEPFKFMPERFLQTQDVVNGKGMEQSLLPFSAGMRICAGMELGKLQFSFSLANLVNAFEWSCVSDGVLPDMSDQLGFVLLMKTPLQARIVPRV
conversion of (S)-scoulerine by microsomal proteins (LC-MS products) [1]: converted to cheilanthifoline and stylopine

B2: EX50: CYP719 from Coptis japonica, Q948Y1.1, SEQ ID NO: 329 (protein, listed as Coptis japonica)
chain: MEMNPLLVCATVAIVFATTTIIRILFSSSSLPQMKWPSGPRKLPIIGNLHQLGDDVLHVALAKLAKVHGSVMTIWIGSWRPVIVISDIEKAWEVLVNKSADYGARDMPEITKIASASWHTISTSDAGSFWQNVRKGLQSGAMGPLNVAAQNQYQERDMKRLIKAMSDEAANNNGIVKPLDHIKKNTVRLLTRLIFGQAFDDNKFIESMHYEIEDIIRISGYARLAEAFYYAKYLPSHKKAEREAFLVKCRVEELVRPLLSSKPPTNSYLYFLLSQNFEEEVIIFCIFELYLLGVDSTSSTTTWALAYLIREQGAQEKLYQDIRMTLGDVDLVKIEDVNKLKYLQGVVKETMRMKPIAPLAIPHKTAKETTLMGTKVAKGTRIMVNLYALHHNQNIWPDPYKFMPERFLEGETGTAYNKAMEQSFLPFSAGMRICAGMDLGKLQFAFALANLVNAFKWSCVEEGKLPDMGEELSFVLLMKTPLEARIAGRNV
residual cheilanthifoline [2]: residual cheilanthifoline was detected | conversion of cheilanthifoline to stylopine [3]: > 98%

B3: EX60: CYP719 from Eschscholzia californica, BAG75114.1, SEQ ID NO: 339 (protein, listed as Eschscholzia californica)
chain: MEEMKFLMMNNPWVLTATFTTLLISIFLFVTRKTSNTEWPNGPKTLPIIGNMHLLGGTKALQVILHNLAKVYGGVMTIWIGSWRPVIIVSDIERAWEVLVNKSSDYSARELPEIIKYNAANFRTIATCDSGPHWSNLRKGLQNVALSPHNLAAQFQFQEKDITKMIQNLEVEAKNNNGIVQPLDHLKKATIRLISRLIFGQDFDEDTYVEKLHHTIDELIRMSGYAQLAEAFYYARYLPNHKKAVNHAAKTKQIVTHLMRPFLSLNPPTNSYLHFLQSQNYDEELIIFSIFEVYLLGVDSTSSTTAWALAYLVREPNVQETLYQELDNFAKQNDRKILKVEDINKLQYLQAVTKETMRMKPIAPLAIPHKASRDTTLMGKKVEKGTKVMVNLHALHHNENVFNDPYKFMPERFLKSYQGAKAKAMEQSYLPFSAGMRICGGMEVGKLQFGFALANLAYAFKWSCAVNGVLPDMSDELGFVLFMKTPLEARIVRRN
residual cheilanthifoline [2]: residual cheilanthifoline was detected

B4: EX72: CYP719 from Nandina domestica, SEQ ID NO: 351 (protein, listed as Nandina domestica)
chain: MDPMSLWAAIAIVLVMTLLVLLQTRTKSLPSSSTQWPTGPKTLPIIGNLHQLEGDVFHVALAKLAKMHGDIMTIWIGSWRPVIVISDYDKAWEVLVNKSSDYSARDMPEITKIASAGWRTISLSSSGPFWHTLRKGLQNGPFGPLNVSAQILSQERDMRRMIRDMQEEADINGGIVKPLGHLKKATVGLLTRLIFGQNFDDDSFIESIHHETEELIRISGYARLAEAFSYAKYLPSHRRAVKESYECKHRVEELVKPLLSSNPPKNSYLNFLQSQDYPEEVIIFCIFEIYLLGVDSTSSTTTWALAFLIHEPAVQEKLYQEVKCITNGDGGLVKAGDLSKFQYLQAVMKETMRMKPIAPLAIPHTTSKDTTLMGTKVAKGTRIMVNLYALHHNPNIWSEPFKFMPERFLQEQFNGVGGDANVKAIEQSFLPFSAGMRICAGMDLGKLQFSFALANLVNAFKWTTVADGKFPDMNEELSFVLLMKTPLEARIVPRKP
residual cheilanthifoline [2]: residual cheilanthifoline was detected

B5: EX98: CYP719 from Stylophorum diphyllum, SEQ ID NO: 377 (protein, listed as Stylophorum diphyllum)
chain: MEESFWLVTATVVVVFVIAKLQFRKSSSISTMEWPAGPKTLPIIGNLHQLGGAALHVVLANLAKAYGSVMTIWVGSWRPMIVISDFDKAWEVLVNKSSDYSARSLPEITRIISANWKNIMTSDSGPFWQNLRKGLQSGALSPHNVMSQYQLQERDMQNLIKTMRVEAFKNNGRIKPLDHLKQETVRLLSRLIFGQDFNDEKLVVGMHHALDDLVRISGYASLADAFKFAENLPSHKKSIREVHELKKRVENLVRPHIVSNPPTNTYLNFLQSQNFSEDLIISAILEVYDLGVDSTASTTVWALTFLVRELKVQEKLYQEIKNLTGGRSTVKVEEVSKMPYLQAVMKETMRMKPIAPMAIPHTAARETSLMGKKIDKGTVVMVNLYAIHHNPNIFPEPYKFMPERFLHGEEQNGGNIKEMEQSLLPFSAGMRICAGMELGKLQLGFALASLVNAFKWECAVDGKLPDMSEDHCFILLMKNPLEAKITPRTH
conversion of nandinine to stylopine [4]: > 98%

B6: EX54: CYP719 from Chelidonium majus, SEQ ID NO: 333 (protein, listed as Chelidonium majus)
chain: MEESFWLVAATVLVVFVVAKLLFRKSSSISTMEWPAGPKTLPIIGNLHQLGGAALHVVLANLAKVYGSVMTIWVGAWRPMIVISDIDKAWEVLVNKSSDYSARSLPEITRIISANWKNIMTSDSGPFWQNLRKGLQGGALSPHNVMSQYQLQERDMQNLIKTMRVEASKNNGRIKPLDHLKQETVRLLSRLIFGQDFNDEKLVVGMHHALDDLVRISGYASLADAFKVAENLPSHKKSIREVHELKRRVENLVRPHIVSNPPTNTYLNFLLSQNFSEDLIISAILEVYDLGVDSTASTTVWALTFLVREQKVQEKLYQEIKNLTGGRSTVKVEEVSKMPYLQAVMKETMRMKPIAPMAIPHTAARETSLMGKKIDKGTVVMVNLYAIHHNPNIFPEPYKFMPERFLHGEEQNGGNIKEMEQSLLPFSAGMRICAGMELGKLQLGFALASLVNAFKWECAADGKLPDLSEDHCFILLMKNPLEAKITPRTH
conversion of nandinine to stylopine [4]: > 98%
